The values that follow come from PMC11924945 (2024).

The term koff denotes a measure of how fast the partners let go of each other. High values mean a short-lived complex, low ones a long-lived complex.

In this test the target is human CD47 (19 to 135) tagged with human immunoglobulin G1 Fc (N297A) (human, UniProt Q08722 19-135, biotin (NHS-biotin, 10-fold molar excess) in SPR). The test can be described thus: SPR. (SPR reads the build-up and loss of mass on a sensor chip optically.)
human CD47 (19 to 135) tagged with human immunoglobulin G1 Fc (N297A), sequence (Q08722 19-135, stated change not applied): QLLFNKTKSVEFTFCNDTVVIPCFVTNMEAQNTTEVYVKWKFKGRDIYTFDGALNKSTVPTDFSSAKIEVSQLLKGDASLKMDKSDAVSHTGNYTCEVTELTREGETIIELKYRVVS

B1: Aedes aegypti Nest1 (neutrophil-stimulating factor 1), recombinant, amino acids 22 to 316 (natural protein)
chain: KPTQGSCTLTDEDISDIKSAVQKASKAAVNDIVLDPTLIDKCPMLEKITASLKSVATEIVQMRDSAISTDQVDQLKQNFEDQVNQIVKSRDIFEKQSGTQATKEHGEMLERMTALQVKVTELEQQIAKQTASMYEDMAELIFQRLQMNSTESVRSYTKHMMEEKLEELMNKLETNYRIYLGALRFLNHMNDQELIGKVFDGILKRLGDMKADSDDVKENGRNLLVNLLCWTVNNDFLGKKYKERQVDLYRMALKFYPKTYEKAANEADVRSRQFCEENFPANLITWFAVSWNDRG
modifications: biotin (BirA500 kit) in the yeast library screen
With B1, the dissociation rate constant (koff) was 0.0121 s⁻¹.
